The text below walks through data of US20200157226A1 (DRAGONFLY THERAPEUTICS, published 2020).

For assay [1], the target named is T1, human NKG2D expressed on cells (primary human NK cells); EL4 mouse lymphoma cell lines engineered to express … (human, UniProt P26718 1-216).
T1 construct: whole, on cells; also called NKG2D expressed on EL4 cells; NKG2D on primary human NK cells
T1 sequence (looked up): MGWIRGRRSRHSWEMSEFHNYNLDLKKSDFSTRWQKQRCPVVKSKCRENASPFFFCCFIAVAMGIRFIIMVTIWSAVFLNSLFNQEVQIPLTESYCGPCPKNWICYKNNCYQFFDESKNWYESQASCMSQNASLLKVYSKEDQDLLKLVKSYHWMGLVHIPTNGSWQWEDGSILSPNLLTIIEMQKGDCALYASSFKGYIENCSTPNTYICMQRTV
Briefly: flow cytometry on primary human NK cells. Here is the method: Primary human NK cells and EL4 mouse lymphoma cell lines engineered to express human NKG2D were used to test binding affinity of trispecific binding proteins (TriNKETs) to NKG2D. Each of the TriNKETs tested contains an NKG2D-binding domain, a tumor-associated antigen binding domain (e.g., a 5T4-binding domain), and an Fc domain that binds to CD16 as shown in FIG. 1. TriNKETs were diluted to 20 μg/mL, and then diluted serially. The binding of the TriNKETs or the parental anti-5T4 monoclonal antibodies to NKG2D were detected using fluorophore-conjugated anti-human IgG secondary antibodies. Cells were analyzed by flow cytometry, and fold-over-background (FOB) was calculated by normalizing the mean fluorescence intensity (MFI) to human recombinant IgG1 staining control.
A general note: In flow cytometry, cells or beads pass a laser one at a time.

The target in assay [2] is T2, 5T4 expressed on human cancer cell lines (human, UniProt Q13641 32-420).
T2 construct: the assays used endogenous 5T4 on BxPC3, H146, H1975, HCT116, MCF7 and N87 cells; also called tumor-associated 5T4 antigen; human trophoblast glycoprotein 5T4
T2 sequence: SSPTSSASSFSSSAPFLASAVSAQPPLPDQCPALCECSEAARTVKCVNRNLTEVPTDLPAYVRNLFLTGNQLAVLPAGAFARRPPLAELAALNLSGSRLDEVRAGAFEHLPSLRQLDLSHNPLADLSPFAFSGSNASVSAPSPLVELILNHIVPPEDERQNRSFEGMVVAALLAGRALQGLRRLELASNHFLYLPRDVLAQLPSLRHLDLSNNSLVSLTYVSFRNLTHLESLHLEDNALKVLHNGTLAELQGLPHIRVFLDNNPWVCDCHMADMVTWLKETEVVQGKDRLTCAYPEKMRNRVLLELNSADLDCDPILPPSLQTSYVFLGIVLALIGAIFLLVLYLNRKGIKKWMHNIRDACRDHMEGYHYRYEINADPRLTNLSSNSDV
The experiment in a line: flow cytometry on BxPC3 cells. Here is the method:
(§1) Human cancer cell lines (BxPC3, H146, H1975, HCT116, MCF7 and N87) expressing the tumor-associated 5T4 antigen were used to assay the binding of 5T4-targeting TriNKETs to the antigen. In separate experiments, the TriNKETs or the parental anti-5T4 monoclonal antibodies were incubated with the each of the cell lines, and the binding of the TriNKETs or anti-5T4 monoclonal antibodies to the cells was detected using fluorophore-conjugated anti-human IgG secondary antibodies. Flow cytometry was used to analyze the binding of the TriNKETs or anti-5T4 monoclonal antibodies to the cells, and fold-over-background (FOB) was calculated by normalizing the mean fluorescence intensity (MFI) to human recombinant IgG1 staining control.

Assay [3] concerns the target T2, 5T4 expressed on human cancer cell lines. The experiment in a line: flow cytometry on 5T4-expressing human cancer cell lines. Here is the method: as §1

B1: anti-5T4 monoclonal antibody 5T4A (antibody, V domains shown)
VH: EVQLVESGGGLVQPGGSLRLSCAASGFTFSNYWMNWVRQAPGKGLEWVGEIRLKSDKYATYYAESVKGRFTISRDDSKNSLYLQMNNLKTEDTGVYYCARRRGYYGSAYGMDYWGQGTLVTVSS
VL: DIQMTQSPSSLSASVGDRVTITCKASQDINSYLSWFQQKPGKAPKILIYRANRLVDGVPSRFSGSGSGKDFTFTISSLQPEDIATYYCLQYDFLPLTFGGGTKVEIK
notes: detected with anti-human IgG secondary antibody; also called 5T4 monoclonal antibody (mAb)
As to B1, the values for the binding result in assay [1] and in assay [2] were “no binding” and “binds”, respectively.

B2: anti-5T4 monoclonal antibody 5T4R (antibody, V domains shown)
VH: EVHLLESGGGLVHPGGSLRLSCAASGFTFRSDAMHWVRQAPGKGLEWVSGVSGSGGSPYYADSVKGRFTISRDDSKTTLYLQMNSLRAEDTAVYYCATGGSIAGSYYYYPMDVWGQGTTVTVSS
VL: DIQMTQSPSSLSASVGDRVTITCQASQDISNYLNWYQQKPGKAPKLLIYAASTLQIGVPSRFSGSGSGTDFTFTISSLQPEDFATYYCQQANSFPLTFGGGTKVEIK
notes: detected with anti-human IgG secondary antibody; also called parental anti-5T4R monoclonal antibody; 5T4 monoclonal antibody (mAb)
Consider B2, for which the binding result was “no binding” in assay [1] and “binds” in assay [3].
